# From the RNAGym collection of RNA variant scans (doi:10.7554/elife.80360)
# B1: Hammerhead Ribozyme (parent)
# chain: ACCGGAUGUGCUUUCCGGUCUGAUGAGUCCGUGAGGACGAAACAG
# Variants of: B1
# Assay: self-cleavage, relative activity (ratio to wild type); higher = more cleavage; co-transcriptional
row,Variant,self-cleavage
1,G27C G39A,0.302
2,G27C G39C,0.261
3,G27C G39U,0.31
4,G27C G45A,0.432
5,G27C G45C,0.493
6,G27C G45U,0.564
7,G27C U28A,0.508
8,G27C U28C,0.431
9,G27C U28G,0.389
10,G27C U32A,0.716
11,G27C U32C,1.01
12,G27C U32G,0.705
13,G27U,0.561
14,G27U A34C,0.32
15,G27U A34G,0.373
16,G27U A34U,0.382
17,G27U A37C,0.308
18,G27U A37G,0.501
19,G27U A37U,0.521
20,G27U A40C,0.363
21,G27U A40G,0.298
22,G27U A40U,0.402
23,G27U A41C,0.328
24,G27U A41G,0.312

row,Variant,self-cleavage
1,G27U A41U,0.347
2,G27U A42C,0.294
3,G27U A42G,0.261
4,G27U A42U,0.315
5,G27U A44C,0.305
6,G27U A44G,0.69
7,G27U A44U,0.349
8,G27U C29A,0.312
9,G27U C29G,0.366
10,G27U C29U,0.316
11,G27U C30A,0.317
12,G27U C30G,0.297
13,G27U C30U,0.456
14,G27U C38A,0.785
15,G27U C38G,0.597
16,G27U C38U,0.683
17,G27U C43A,0.374
18,G27U C43G,0.268
19,G27U C43U,0.366
20,G27U G31A,0.529
21,G27U G31C,0.462
22,G27U G31U,0.474
23,G27U G33A,0.754
24,G27U G33C,0.484

row,Variant,self-cleavage
1,G27U G33U,0.535
2,G27U G35A,0.334
3,G27U G35C,0.407
4,G27U G35U,0.345
5,G27U G36A,0.303
6,G27U G36C,0.304
7,G27U G36U,0.328
8,G27U G39A,0.341
9,G27U G39C,0.314
10,G27U G39U,0.297
11,G27U G45A,0.363
12,G27U G45C,0.365
13,G27U G45U,0.488
14,G27U U28A,0.552
15,G27U U28C,0.38
16,G27U U28G,0.507
17,G27U U32A,0.547
18,G27U U32C,0.495
19,G27U U32G,0.417
20,U28A,0.822
21,U28A A34C,0.623
22,U28A A34G,0.516
23,U28A A34U,0.678
24,U28A A37C,0.398

row,Variant,self-cleavage
1,U28A A37G,0.325
2,U28A A37U,0.895
3,U28A A40C,0.352
4,U28A A40G,0.394
5,U28A A40U,0.41
6,U28A A41C,0.277
7,U28A A41G,0.398
8,U28A A41U,0.303
9,U28A A42C,0.335
10,U28A A42G,0.25
11,U28A A42U,0.341
12,U28A A44C,0.38
13,U28A A44G,0.596
14,U28A A44U,0.402
15,U28A C29A,0.682
16,U28A C29G,0.445
17,U28A C29U,0.774
18,U28A C30A,0.376
19,U28A C30G,0.384
20,U28A C30U,0.562
21,U28A C38A,0.726
22,U28A C38G,0.521
23,U28A C38U,0.703
24,U28A C43A,0.292

row,Variant,self-cleavage
1,U28A C43G,0.336
2,U28A C43U,0.381
3,U28A G31A,0.856
4,U28A G31C,0.919
5,U28A G31U,0.92
6,U28A G33A,0.829
7,U28A G33C,1.15
8,U28A G33U,0.884
9,U28A G35A,0.405
10,U28A G35C,0.435
11,U28A G35U,0.489
12,U28A G36A,0.339
13,U28A G36C,0.396
14,U28A G36U,0.438
15,U28A G39A,0.422
16,U28A G39C,0.382
17,U28A G39U,0.301
18,U28A G45A,0.436
19,U28A G45C,0.365
20,U28A G45U,0.496
21,U28A U32A,0.824
22,U28A U32C,0.626
23,U28A U32G,0.306
24,U28C,1.08

row,Variant,self-cleavage
1,U28C A34C,0.684
2,U28C A34G,0.934
3,U28C A34U,0.723
4,U28C A37C,0.467
5,U28C A37G,0.914
6,U28C A37U,0.772
7,U28C A40C,0.44
8,U28C A40G,0.356
9,U28C A40U,0.307
10,U28C A41C,0.29
11,U28C A41G,0.364
12,U28C A41U,0.319
13,U28C A42C,0.338
14,U28C A42G,0.251
15,U28C A42U,0.325
16,U28C A44C,0.497
17,U28C A44G,1.11
18,U28C A44U,0.599
19,U28C C29A,0.688
20,U28C C29G,0.583
21,U28C C29U,0.688
22,U28C C30A,0.826
23,U28C C30G,0.322
24,U28C C30U,0.573

row,Variant,self-cleavage
1,U28C C38A,0.789
2,U28C C38G,0.575
3,U28C C38U,1.01
4,U28C C43A,0.289
5,U28C C43G,0.334
6,U28C C43U,0.405
7,U28C G31A,1.03
8,U28C G31C,0.769
9,U28C G31U,0.854
10,U28C G33A,1.16
11,U28C G33C,0.906
12,U28C G33U,0.973
13,U28C G35A,0.638
14,U28C G35C,0.534
15,U28C G35U,0.431
16,U28C G36A,0.634
17,U28C G36C,0.297
18,U28C G36U,0.591
19,U28C G39A,0.291
20,U28C G39C,0.371
21,U28C G39U,0.291
22,U28C G45A,0.628
23,U28C G45C,0.406
